{"source": "the nanobody polyreactivity screen of Harvey et al. (2022)"}
{"test": "yeast display, Sf9 membrane polyspecificity reagent, FACS + sequencing; frameworks hold sequencing errors", "method_in_brief": "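Sorting gates, low and high (top ~1%), were placed on anti-HA fluorescence to track expression and on streptavidin fluorescence to track reagent binding. A clone's polyreactivity label is taken from the gate it came out of. The reagent was 10% biotinylated, detergent-solubilized Sf9 membrane, applied for 1 hour at 4 °C to galactose-induced yeast display cells.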"}
{"sequence": "QVQLVESGGGLVQAGGSLRLSCAASGRSFCYNAMGWYSQAPGKERELVAGISSSGGTTYYADSVKGRFTISRDKAKNTVYLQMNSLKPEDTAVYYCAKRFSLLSTVRWGRYNYWGQGTQVTVSS", "polyreactivity (PSR sort gate)": "high polyreactivity"}
{"sequence": "QVQLVESGGGLVQAGGSLRLSCAASGSTLYVYTMGWYRQAPGKERELVATINTSGSRTYYADSLKGRFTISRDIAKNTVYLQMNSLKPEDTAVYYCNARSSRWFYGYNYWGQGTQVTVSS", "polyreactivity (PSR sort gate)": "high polyreactivity"}
{"sequence": "QVQLVESGGGLVQAGGSLRLSSAASGSTFWYYAMGWYRQAPGTERELVAGITQSGGSTYYADSVKGRFTISRDNAKNTVYLQMNSLKPEDTAVYYCAKDGRVSGDFDYWGQGTQVTVSS", "polyreactivity (PSR sort gate)": "low polyreactivity"}
{"sequence": "QVQLVESGGGLVQAGGSLRLSCAASGIIFYLNAMGWYRQAPGKERELVAAISSSGGRTNYADSVKGRFTISRDNAKNSVYLQMNSLKPEDTAVYFCAAVITFYRYPPGETYYYWGQGTQVTVSS", "polyreactivity (PSR sort gate)": "high polyreactivity"}
{"sequence": "QVQLVESGGGLVQAGGSLRLSCAASGYTFGTYTMGWYRMARWKERELVAGIDSGGTTNYADSVKGRFTISRDNATNTVYLQMHSLKPEHTAVYYSTAYHLLIVDYYLGLYYYRGNYYWGQGTQVTVSS", "polyreactivity (PSR sort gate)": "low polyreactivity"}
{"sequence": "QVQLVESGGGLVQAGGSLRLSCAASGFIFFYYAMGWYRQAPGKERELVAAISASGGSTYYADSVKGRFTISRDNAKNTVYLQLNSLKPEDTAVYYCAARYRKAESARWEYGYWGQGTQVTVSS", "polyreactivity (PSR sort gate)": "high polyreactivity"}
{"sequence": "QVQLVESGGGLVQAGGSLRLTCAASGSTFFYYAMVWYIHAPGKERELVAAITVRGTSTYYADSVKGRFTISRDIAKNTVYLQMNSLKPEDTAVYYCNTLQPYLYDYWGQGTQVTVSS", "polyreactivity (PSR sort gate)": "high polyreactivity"}
{"sequence": "QVQLVESGGGLVQAGGSLRLSCAASGRTSYVYAMGWYRQAPGKERELVAAITSSGASTYYADSVKGRFTISRDNAKNTVYLQMNSLKPEDTAVFYCAAETYPVWGVAFYYWGQGTQVTVSS", "polyreactivity (PSR sort gate)": "high polyreactivity"}
{"sequence": "QDHLVESVGGLVQAGRSLRLTCAASGGTFYYKTMGWYRQAPGKESQLVAAITSGTSTNYADSVKGRFTISRDNAKNTVYLQMNSLKPEDTAVYYCAADPDADDPRRGYDYWGQGTQVTVSS", "polyreactivity (PSR sort gate)": "low polyreactivity"}
{"sequence": "QVQLVESGGGLVQAGGSNRLSCAASGYIFDIYAMGCYRQAPVKERELVAVITRSGGGTYYADSVKGRFTISRDNAKNSVYLQMNSLKPEDTAVYYCAAESYVYGGSDYDYWGQGTQVTVSS", "polyreactivity (PSR sort gate)": "low polyreactivity"}
{"sequence": "QVQLVESGGGLVQAGGSLRLSCAASGFTFDFYAMGWNRQAPGKERELVAVISSSGRTYYADSVKGRFTISRDNAKNSVYLQMNSMKPEDTAVYYCDAKDKRGHTYDYWGQGTQVTVSS", "polyreactivity (PSR sort gate)": "high polyreactivity"}
{"sequence": "QVQLVESGGGLVQAGGSLRLSCAASGSIFCDNAMGWYRQEPGKERELVAAISIVGSTSYADSVKGRFTISRDNANNTVYLQMNSLKPEDTAVYYCAAENVRSDTGFDYWGQGTQVTVSS", "polyreactivity (PSR sort gate)": "low polyreactivity"}
{"sequence": "QVQLVESGGGLVQAGGSLRLSCAASGRIFPTNAMGWYRQPPGKEREFVAAITWRGGSTYYADSVKGRFTISRDNAKNTVYLQMNSLKPEDTAVYYCAAELDYFPGYDYWGQGTQVTLSS", "polyreactivity (PSR sort gate)": "low polyreactivity"}
{"sequence": "QVQLVESGGGLVQAGGSLRLSCAASGSIYVYYAKGWYRQAPGKERYLVAAINTSGGSTYYADSVKGRFTISRDNAKNTVYLQMNSLKPEDTAVYYCAATPFASPRLHSFVVSYRYYYWGQGTQVTVSS", "polyreactivity (PSR sort gate)": "low polyreactivity"}
{"sequence": "QVQLVESGGRLVQAGGSLRLSCAASGRIFGYYAMGRYRQAPGKERQLVAAITSGGSTYYADSVKGRFTISRDNATNTVYLQMHSLKPEDTADYYCNARYWGRTKVYYWGQGTQVTVSS", "polyreactivity (PSR sort gate)": "high polyreactivity"}
{"sequence": "QVQLVESGGGLVQAGGSLRLSCAASGRIFPWYAMGWYRQAPGKERELVAAISWSGGRTYYADSVKGRFTISRDNAKITVYLQMNSLKPEDTAVYYCNTGTSGRFLSFGNFDYWGQGTQVTVSS", "polyreactivity (PSR sort gate)": "high polyreactivity"}
{"sequence": "QVQLVESGGGLVQAGGSLRLSCAASGFIFGDNAMGWYRQAPGKERELVAAITYSGGSTYYADSVKGRFTISRDYAKNTVYLQMNSLKPEDTAVYDCAASNQWSSTYLTYGYYYWGQGTQVTVSS", "polyreactivity (PSR sort gate)": "low polyreactivity"}
